Measurements from US20250122539A1, “LARGE SCALE PRODUCTION OF DIVARIN, DIVARINIC ACID AND OTHER ALKYL RESORCINOLS BY FERMENTATION” (priority 2021, published 2025).

Experiments:
[1] = Partitioning of divarinic acid and divarin into organic solvent overlays (96 well deepwell plate, HPLC); type: physicochemical; settings: compared with olivetolic acid and olivetol
Experimental: Several monoester and one diester overlay candidate were compared to IPM for production of divarinic acid and divarin. LSC3-13 precultures were inoculated from YPD streak plates and grown in 300 μL Delft medium+0.79 g/L complete supplement mixture (CSM) (ForMedium, Norfolk, UK)+2% (w/v) glucose in round-bottom square well 96 well deepwell plates for approximately 18 hours overnight at 30° C. with 950 rpm shaking in an Infors plate shaker. 96 well deepwell plate wells containing 300 μL of Delft medium+CSM+2% (w/v) glucose, 60 μL of different overlay solvents, and 0.08% (w/v) butyric acid, were inoculated with 10 μL of preculture and grown for 30° C. with 950 rpm shaking. After 48 hours, the aqueous layer and overlay were sampled on a Bravo automated liquid handling platform (Agilent) and samples from the aqueous and organic overlay phases were subjected to HPLC analysis to measure divarinic acid and divarin production.

[2] = Partitioning of olivetolic acid between organic overlay and aqueous culture phase (shake flask, HPLC); type: physicochemical; settings: YP + 2% galactose culture
Experimental: Precultures of LSC3-2 and LSC3-18 were inoculated from YPD streak plates and grown in 30 ml of YP+2% (w/v) glucose in baffled 250 ml shake flasks for approximately 18 hours overnight at 30° C. with 200 rpm shaking. Baffled 250 ml shake flasks containing 30 mL of YP+2% (w/v) galactose, 5 mL of IPM or diethyl sebacate, and 0.04% (w/v) hexanoic acid, were inoculated with 1 mL of preculture and grown for at 30° C. with 200 rpm shaking. After 24 and 48 hours, samples of cell culture broth plus overlay were sampled into microcentrifuge tubes and stored at −20° C. at least overnight. Sample tubes were thawed and aqueous sample and overlay sample were pipetted into plates for HPLC analysis. Overlay samples were diluted 1:1 v/v with methanol in the HPLC plate prior to analysis.
Total olivetol equivalents are defined as the concentration of olivetol in mg/L, plus the concentration of olivetolic acid in mg/L multiplied by the ratio of the molecular weight of olivetol to olivetolic acid.

hexanoic acid = test: Two plasmid screening system for relative AAE activity, hexanoic acid feeding; type: cell-based, Saccharomyces cerevisiae; settings: average production, LSC3-297/pLOA-049 plus AAE plasmid, Delft medium pH 6.5, 3.44 mM hexanoic acid, 48 hours
From the text: (§1) In order to perform in vivo screening in Saccharomyces cerevisiae for acyl activating enzyme (AAE) variants with enhanced activity and/or expression, a two plasmid screening system was employed to generate an artificial bottleneck in AAE activity. This bottleneck was generated by natural copy number variation of the two plasmids, with a multi-copy 2 micron episomal plasmid, pLOA-049, harboring an olivetol synthase homologue from C. sativa (CsTKS) fused with a T2A self-cleaving peptide (Kearsey et al., FEBS J. 287:1511-1524, 2020) to a gene encoding olivetol acid cyclase from C. sativa (CsOAC), and a lower copy centromeric plasmid with an autonomous replicating sequence (CEN/ARS) harboring different acyl activating enzymes/acyl-CoA synthetases from different organisms. Markers employed on the 2 micron plasmid were orotidine-5′-phosphate decarboxylase from S. cerevisiae (URA3) and on the CEN/ARS plasmid, the multifunctional histidine biosynthesis gene HIS4 from S. cerevisiae. The cassette architecture in the plasmids was based on integrated cassettes in production strain LSC3-2, with a pGAL1-10 bidirectional promoter driving expression of CsTKS and CsOAC from pGAL1 with a S. cerevisiae CYC1 terminator, and insulated downstream of pGAL10 by a S. cerevisiae GRE3 terminator. Likewise on the CEN/ARS plasmid, a bidirectional pGAL1-10 promoter drives expression of CsAAE1 from pGAL10 with a S. cerevisiae GRE3 terminator, and is insulated downstream of pGAL1 by a S. cerevisiae CYC1 terminator.
(§2) To screen activity of AAE variants, first a CEN/ARS containing plasmid expressing AAEs co-transformed with the 2 micron plasmid expressing CsTKS translationally fused to CsOAC via the T2A self-cleaving peptide into strain LSC3-297 using the transformation method described by Gietz and Schiestl (Nat. Protocols 2:31-34, 2007). Double plasmid transformants were selected on YNB agar with 2% (w/v) glucose and CSM minus histidine and minus uracil (CSM-His-Ura, Sunrise Science Products) and grown in a 30° C. incubator for approximately 48 hours or at room temperature for approximately 72 hours. Individual colonies were picked into wells of 96 deepwell plates containing 0.3 mL per well of Delft medium with 2% (w/v) glucose and 0.75 g/L CSM-His-Ura. Delft medium base contains (per liter solution) 7.5 g ammonium sulfate, 14.4 g potassium phosphate monobasic (added from a 1 M stock solution adjusted to pH 6.5 with sodium hydroxide), 0.5 g magnesium sulfate heptahydrate, 3.6 mL of a trace metal solution (consisting of 130 g/L citric acid monohydrate, 0.574 g/L copper (II) sulfate pentahydrate, 8.07 g/L iron (III) chloride hexahydrate, 0.5 g/L boric acid, 0.333 g/L manganese (II) chloride, 0.2 g/L sodium molybdate, and 4.67 g/L zinc sulfate heptahydrate), and 1.0 ml of a vitamin solution (0.008 g/L biotin, 1.6 g/L calcium pantothenate, 0.008 g/L folic acid, 8 g/L myo-inositol, 1.6 g/L nicotinic acid, 0.8 g/L p-aminobenzoic acid, 1.6 g/L pyridoxal hydrochloride, 0.8 g/L riboflavin, 1.6 g/L thiamine hydrochloride, adjusted to pH […] with sodium hydroxide). Plates were grown for 16-24 hours at 30° C. in a plate shaker incubator maintained at 80% relative humidity and 900 rpm shaking (3 mm diameter throw). Ten microliters of preculture was then used to inoculate wells of 96 deepwell plates containing 0.3 mL per well of Delft medium with 2% (w/v) glucose, 0.75 g/L CSM-His-Ura, either 9.08 mM butyric acid or 3.44 mM hexanoic acid, and for divarin/divarinic acid, additionally 150 mM 2-(N-morpholino) ethanesulfonic acid (MES) at pH 5.5 and with the additional modification of the 1 M potassium phosphate monobasic stock in the Delft medium base also adjusted to pH 5.5 (for olivetol/olivetolic acid production from hexanoic acid, no MES was added and potassium phosphate monobasic solution used in the Delft medium base was at pH 6.5). […]

butyric acid = test: Two plasmid screening system for relative AAE activity, butyric acid feeding; type: cell-based, Saccharomyces cerevisiae
From the text: as §1, §2

[3] = average production, LSC3-297/pLOA-049 plus AAE plasmid, Delft medium pH 5.5 with 150 mM MES, 9.08 mM butyric acid, 48 hours

Molecule: CCCc1cc(O)cc(O)c1C(=O)O [divarinic acid, 2,4-dihydroxy-6-propylbenzoic acid]
- partitioning into monoester overlays [1]: partition less effectively

Molecule: CCCc1cc(O)cc(O)c1 [divarin, 1,3-dihydroxy-5-propylbenzene]
- partitioning into monoester overlays [1]: partition less effectively

Molecule: CCCCCc1cc(O)cc(O)c1C(=O)O [OA, olivetolic acid]
- partitioning between overlay and aqueous phase ([2]; IPM overlay): partitioned between the IPM and aqueous phases
- partitioning between overlay and aqueous phase ([2]; diethyl sebacate overlay): entirely partitioned into diethyl sebacate

B1: At4CLL6: 4-coumarate--CoA ligase-like 6 from Arabidopsis thaliana (Uniprot Q84P24), SEQ ID NO: 11 (protein, listed as Arabidopsis thaliana)
chain: MAATHLHIPPNPKTQTSHQNPPFWFSSKTGIYTSKFPSLHLPVDPNLDAVSALFSHKHHGDTALIDSLTGFSISHTELQIMVQSMAAGIYHVLGVRQGDVVSLVLPNSVYFPMIFLSLISLGAIVTTMNPSSSLGEIKKQVSECSVGLAFTSTENVEKLSSLGVSVISVSESYDFDSIRIENPKFYSIMKESFGFVPKPLIKQDDVAAIMYSSGTTGASKGVLLTHRNLIASMELFVRFEASQYEYPGSSNVYLAALPLCHIYGLSLFVMGLLSLGSTIVVMKRFDASDVVNVIERFKITHFPVVPPMLMALTKKAKGVCGEVFKSLKQVSSGAAPLSRKFIEDFLQTLPHVDLIQGYGMTESTAVGTRGFNSEKLSRYSSVGLLAPNMQAKVVDWSSGSFLPPGNRGELWIQGPGVMKGYLNNPKATQMSIVEDSWLRTGDIAYFDEDGYLFIVDRIKEIIKYKGFQIAPADLEAVLVSHPLIIDAAVTAAPNEECGEIPVAFVVRRQETTLSEEDVISYVASQVAPYRKVRKVVMVNSIPKSPTGKILRKELKRILTNSVS
- Olivetol (hexanoic acid): 0.86 mg/L
- Olivetolic acid (hexanoic acid): 0.91 mg/L
- Divarin (butyric acid; [3]): 5.96 mg/L
- Divarinic acid (butyric acid; [3]): 5.24 mg/L
- activity as butyryl-CoA synthetases for divarin and divarinic acid production (butyric acid; over CsAAE1): several-fold activity improvements
